Publication PMC9839326 (Science Advances, 2023)

Molecular target: cytochrome f (Cyt f) of spinach Cyt b6f (spinach (Spinacia oleracea), UniProt P16013 36-320)
Test: cryo-EM structure

Chain of cytochrome f (Cyt f) of spinach Cyt b6f (P16013 36-320): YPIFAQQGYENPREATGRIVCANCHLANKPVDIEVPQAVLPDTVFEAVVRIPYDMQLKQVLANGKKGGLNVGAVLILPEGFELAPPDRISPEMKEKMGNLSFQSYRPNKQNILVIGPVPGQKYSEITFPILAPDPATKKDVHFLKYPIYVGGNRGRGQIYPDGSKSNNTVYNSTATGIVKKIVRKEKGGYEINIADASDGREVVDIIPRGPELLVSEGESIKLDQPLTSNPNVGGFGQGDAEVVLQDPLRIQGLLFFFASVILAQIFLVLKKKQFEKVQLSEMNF

- binding result: binds
B1: plastocyanin (PC) from spinach (natural protein)
chain: VEVLLGGGDGSLAFLPGDFSVASGEEIVFKNNAGFPHNVVFDEDEIPSGVDAAKISMSEEDLLNAPGETYKVTLTEKGTYKFYCSPHQGAGMVGKVTVN
